Data reported in patent US20230009582A1 (MEMO THERAPEUTICS, published 2023).
Each block holds one binder with its values, some of them ahead of it.

Legend:
[1] = molecular target: T1, Siglec-9 protein (construct not stated; antigen of Examples 3 and 4) (human, UniProt Q9Y336 18-348, limits assumed); assay: SPR (Carterra LSA), antibody coupled to HC2000M chip, antigen at 20, 100 and 500 nM
Procedure: KD determination was performed by SPR by individually coating the antibodies to HC2000M chips via sulpho-NHS/EDC coupling chemistry. Chips were afterwards blocked with ethanolamine. Antigen was applied in one of the three different concentrations (20 nM, 100 nM and 500 nM) with a contact time of 240 s, followed by a dissociation phase of 120 s. After each antigen incubation, the bound antigen was removed from the antibodies with 10 mM glycine at pH 2.0. All kinetic parameters (kₒₙ, koff and KD) were determined using a kinetic fitting program (LSA Kinetics, Carterra).

[2] = molecular target: T2, Siglec-5-Fc (R&D systems) (UniProt O15389 17-434, limits assumed); assay: ELISA, coated Siglec-5-Fc 1 µg/ml, single antibody concentration, anti-human Fab detection, Abs 450 nm, n=3
T2 construct: Bought reagent; not shown: Fc part of the bought fusion; not described
T2 sequence (looked up): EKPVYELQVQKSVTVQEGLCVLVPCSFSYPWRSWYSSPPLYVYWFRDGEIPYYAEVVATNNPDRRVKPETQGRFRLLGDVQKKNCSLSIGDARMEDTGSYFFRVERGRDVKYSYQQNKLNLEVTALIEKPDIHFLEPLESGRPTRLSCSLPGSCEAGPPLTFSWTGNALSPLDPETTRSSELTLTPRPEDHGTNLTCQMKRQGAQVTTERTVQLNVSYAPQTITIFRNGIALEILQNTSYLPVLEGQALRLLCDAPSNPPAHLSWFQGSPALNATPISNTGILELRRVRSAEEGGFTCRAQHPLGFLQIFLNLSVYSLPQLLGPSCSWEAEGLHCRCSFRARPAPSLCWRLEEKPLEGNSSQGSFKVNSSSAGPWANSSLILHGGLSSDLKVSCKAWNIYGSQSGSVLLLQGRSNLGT
Procedure: Specificity towards Siglec-5, Siglec-7, Siglec-8, Siglec-15 and Siglec-9 was assayed in enzyme-linked immunosorbent assay (ELISA) using 96 well half-area ELISA plates (Corning). Siglec-5-Fc (R&D systems), Siglec-7-Fc (in-house production, Siglec-7-Fc protein used had the following amino acid sequence:
(SEQ ID NO: 59)) […] […] […] […] […] […] […] […] […] […] […] […], Siglec-8-Fc (R&D systems), Siglec-15- Fc (R&D systems) and Siglec-9-Fc (in-house production, SEQ ID NO: 11) were coated at 1 μg/ml in 50 mM carbonate-bicarbonate buffer pH 9.6 for 15-20 hours at 4° C.
Antigens were washed away (Tecan Hydrospeed) and plates were blocked with 5% skimmed milk in phosphate-buffered saline (PBS). After washing the plates, antibodies were added at 5 μg/ml (33 nM) in 0.5% milk PBS in triplicates. Plates with antibodies were incubated for 1 hour at room temperature. Plates were washed and bound antibodies were detected by horseradish peroxidase (HRP)-labeled polyclonal anti-rabbit IgG antibody (Biolegend) or anti-human Fab fragment for mAbA (Sigma Aldrich). 3,3′,5,5′-Tetramethylbenzidine (TMB; Sigma Aldrich) development was stopped by addition of sulfuric acid and absorbance was detected at 450 nm (Tecan, CM […] MONO 200).

[3] = molecular target: T1, Siglec-9 protein (construct not stated; …); assay: ELISA, coated Siglec-9 1 µg/ml, antibody titrated, anti-human Fab detection, Abs 450 nm, three-parameter fit, n=3
Procedure: FIG. 2: Binding curves of monoclonal antibodies (68D4 and 224B1; comparative monoclonal antibodies mAbA and 5C6 & negative control 53C3) towards Siglec-9 as analysed by ELISA. Binding of the monoclonal antibody to Siglec-9, as determined by measurement of the accumulated coloured product at 450 nm after stopping the reaction, is plotted against the concentration of the monoclonal antibody under evaluation.
Antibody binding affinity towards Siglec-9 was measured by a dilution series of the analysed antibodies on a fixed concentration of Siglec-9 protein in ELISA. To this end, Siglec-9 was coated at 1 μg/ml in 50 mM carbonate-bicarbonate buffer pH 9.6 for 15-20 hours at 4° C. Antigen solution was washed away (Tecan Hydrospeed) and plates were blocked with 5% skimmed milk in phosphate-buffered saline (PBS) for 1 hour at room temperature. Plates were washed and antibodies were added at concentrations of 0-420 nM. […] Bound antibodies were detected by addition of horseradish peroxidase (HRP)-coupled secondary antibodies. Rabbit antibodies were detected by polyclonal anti-rabbit IgG antibody (Biolegend), mAbA by anti-human Fab fragment (Sigma Aldrich). […] Absorbance was detected at 450 nm (Tecan, CM […] MONO 200). Data were fitted and EC50 values were determined by three-parameter analysis in GraphPad Prism (GraphPad Software)

[4] = molecular target: T3, Siglec-9-Fc (in-house production); assay: blocking assay: Calcein-AM labelled sialic acid-displaying A549 tumour cells binding to plate-captured Siglec-9-Fc, antibody titrated, n=3
T3 construct: The entry holds the Siglec-9 part and the Fc together; also called Siglec-9-Fc protein
Procedure: FIG. 4: Titration of monoclonal antibodies (68D4 and 224B1; comparative monoclonal antibodies mAbA and 5C6 & negative control 53C3) to determine blocking the binding of sialic acid-displaying A549 tumour cells to Siglec-9. Tumour cells were fluorescently-loaded with Calcein-AM in advance to the binding experiment and binding was determined by the released fluorescence upon cell lysis. Fluorescence released in the absence of antibody was set to 100% binding. Data was fitted by three-parameter analysis in GraphPad Prism (GraphPad Software); n=3.
To analyse if anti-Siglec-9 antibodies recognize the ligand-binding domain and block the binding of Siglec-9 to its ligands, sialic acids, we performed a cell-based assay where the binding of sialic-acid expressing A549 tumour cells to Siglec-9-Fc is evaluated in ELISA. ELISA-plates were coated with 3 μg/ml Protein-A (Thermo Fisher Scientific) overnight at 4° C. Plates were blocked with PBS, 1% BSA for 1 h, and incubated with 5 μg/ml Siglec-9-Fc for 1 h at RT. Anti-Siglec-9 antibodies at different concentrations (starting at 8 μg/ml or 53 nM); were mixed 1:1 with Calcein-AM (Thermo Fisher Scientific) labeled A549 tumour cells. The mixture was added to the ELISA plate and incubated for 1 h at 4° C. After washing of the plate, cells that were bound to the plate were lysed with PBS, 1% Triton-X 100 and released fluorescence was measured at an excitation of 485 nm and emission of 535 nm with a Synergy H1 (BioTek). Data were fitted by three-parameter analysis in GraphPad Prism (GraphPad Software).

T1 sequence (Q9Y336 18-348 limits assumed): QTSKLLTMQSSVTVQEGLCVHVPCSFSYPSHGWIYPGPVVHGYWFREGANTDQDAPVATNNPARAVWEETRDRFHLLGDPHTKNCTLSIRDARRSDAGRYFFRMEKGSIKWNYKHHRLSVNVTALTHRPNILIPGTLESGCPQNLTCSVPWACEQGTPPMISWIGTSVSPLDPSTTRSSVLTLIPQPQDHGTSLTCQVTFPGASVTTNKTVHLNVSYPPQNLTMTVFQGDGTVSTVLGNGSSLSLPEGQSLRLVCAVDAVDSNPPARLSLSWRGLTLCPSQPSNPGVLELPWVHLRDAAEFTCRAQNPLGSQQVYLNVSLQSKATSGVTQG
T3 sequence (chain, as listed by the source limits assumed): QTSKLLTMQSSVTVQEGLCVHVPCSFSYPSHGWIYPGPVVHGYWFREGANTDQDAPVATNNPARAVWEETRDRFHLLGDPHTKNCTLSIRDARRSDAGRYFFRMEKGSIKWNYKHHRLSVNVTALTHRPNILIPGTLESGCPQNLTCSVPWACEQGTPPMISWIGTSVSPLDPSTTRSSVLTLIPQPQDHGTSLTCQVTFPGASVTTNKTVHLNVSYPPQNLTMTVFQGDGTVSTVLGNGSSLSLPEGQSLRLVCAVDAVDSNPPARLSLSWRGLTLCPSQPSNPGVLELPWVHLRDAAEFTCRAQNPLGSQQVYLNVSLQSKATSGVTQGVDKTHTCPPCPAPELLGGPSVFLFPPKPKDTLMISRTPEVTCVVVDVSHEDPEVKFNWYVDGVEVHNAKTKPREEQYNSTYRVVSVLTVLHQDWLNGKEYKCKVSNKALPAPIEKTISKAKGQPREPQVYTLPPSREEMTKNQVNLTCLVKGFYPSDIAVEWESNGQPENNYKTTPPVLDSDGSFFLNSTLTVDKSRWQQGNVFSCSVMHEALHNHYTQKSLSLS

Kd [1]: 2.5 nM
koff [1]: 0.00053 s⁻¹
kon [1]: 210000 M⁻¹ s⁻¹
binding result [2]: no binding (tested: 5 µg/ml)
EC50 [3]: 0.42 nM
binding result [4]: binds
B1: comparative monoclonal antibody mAbA (WO 2017/153433), mouse-human chimera (antibody, human IgG1, kappa, V domains shown)
VH: QVQLQQPGAELVKPGSPVKLSCKASYFTFTSYWMHWVRQRPGQGLEWIGEINPSNGHTNYNEKFESKATLTVDRSSSTAYMQLSSLTSEDSAVFYCANGVESYDFDDALDYWGQGTSVTVSS
VL: DIQMTQTTSSLSASLGDRVTISCRASQDINNYLNWYQQKPDGTIKLLIYYTSRLHSGVPSRFSGSGSGTDYSLTINNLEQEDIATYFCQQGNTLPFTFGGGTKLEIKR

Kd [1]: 5.1 nM
koff [1]: 0.0012 s⁻¹
kon [1]: 230000 M⁻¹ s⁻¹
binding result [4]: binds
B2: monoclonal antibody 224B1 (rabbit) (antibody, V domains shown)
VH: QSVEESGGRLVTPETPLTLTCTASGFSLSSYYMSWVRQAPGKGLEWIGYIWTDGSAHYATWTKGRFTISKTSSTTVDLKITSPTTEDTATYFCVRANSGSHTYIEKFNLWGPGTLVTVSS
VL: DVVMTQTPASVEATVGGSVTIKCQASPSINDELSWYQQKPGQRPTLLIYEASALESGVPSRFKGSGSGTEFTLTIGDLECADAATYYCQCTYGSRSDISYGNTFGGGTEVVVKG
